The results in this text go back to article PMC4357711.

Data set [1] addresses T1, DDX1 (DDX1-728) (Homo sapiens, UniProt Q92499 1-728).
T1 sequence: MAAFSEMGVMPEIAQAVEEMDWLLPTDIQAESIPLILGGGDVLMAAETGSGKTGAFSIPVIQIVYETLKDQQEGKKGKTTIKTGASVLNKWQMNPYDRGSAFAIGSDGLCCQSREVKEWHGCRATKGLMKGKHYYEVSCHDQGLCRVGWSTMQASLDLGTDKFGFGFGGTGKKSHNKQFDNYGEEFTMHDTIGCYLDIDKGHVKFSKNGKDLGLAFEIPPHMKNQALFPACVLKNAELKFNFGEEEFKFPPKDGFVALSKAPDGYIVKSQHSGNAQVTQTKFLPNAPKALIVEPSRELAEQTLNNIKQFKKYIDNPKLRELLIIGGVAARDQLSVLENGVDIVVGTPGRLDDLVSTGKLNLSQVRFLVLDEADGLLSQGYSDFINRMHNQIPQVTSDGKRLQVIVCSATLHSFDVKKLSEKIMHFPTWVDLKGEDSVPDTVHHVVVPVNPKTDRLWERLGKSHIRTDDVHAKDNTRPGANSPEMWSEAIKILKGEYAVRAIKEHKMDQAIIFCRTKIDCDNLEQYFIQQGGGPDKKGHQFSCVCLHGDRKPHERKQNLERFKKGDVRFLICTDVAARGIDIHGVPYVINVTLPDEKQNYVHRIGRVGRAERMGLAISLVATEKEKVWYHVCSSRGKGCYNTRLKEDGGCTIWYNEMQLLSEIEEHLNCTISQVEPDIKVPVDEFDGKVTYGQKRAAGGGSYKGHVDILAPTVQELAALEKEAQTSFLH
Briefly: EMSA.

Data set [2] addresses T1, DDX1 (DDX1-728). Briefly: mantdADP displacement fluorescence titration, global fit.

B1: 10mer polyU RNA, FAM (ssRNA)
RNA: UUUUUUUUUU
On to B1, for which, in the data set with DDX1 (DDX1-728) [1], the binding result was “binds”.

B2: 13mer mixed sequence RNA, FAM (ssRNA)
RNA: AGCACCGUAAAGA
B2: in the data set with DDX1 (DDX1-728) [1], the binding result is recorded as “binds”.

B3: 10mer polyA RNA (ssRNA)
RNA: AAAAAAAAAA
Regarding B3, in the data set with DDX1 (DDX1-728) [2], the equilibrium dissociation constant (Kd) (as a rule, the free concentration of one partner at which half of the binding sites on the other are occupied at equilibrium, for simple one-to-one binding) stood at 360 ± 120 nM.
